# Publication PMC2474558
# T1: hDOP–Renilla luciferase (human), P41143
# T1 chain: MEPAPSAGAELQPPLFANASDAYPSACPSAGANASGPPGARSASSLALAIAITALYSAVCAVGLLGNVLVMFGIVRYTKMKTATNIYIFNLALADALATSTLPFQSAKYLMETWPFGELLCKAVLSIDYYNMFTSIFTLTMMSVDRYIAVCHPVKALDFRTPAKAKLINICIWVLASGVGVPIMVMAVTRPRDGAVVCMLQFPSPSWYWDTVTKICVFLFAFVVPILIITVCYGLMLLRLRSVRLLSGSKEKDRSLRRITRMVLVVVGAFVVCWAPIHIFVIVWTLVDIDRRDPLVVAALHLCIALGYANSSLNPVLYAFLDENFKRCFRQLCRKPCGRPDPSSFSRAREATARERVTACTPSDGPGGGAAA
# T2: hCXCR2–Renilla luciferase (human), P25025
# T2 chain: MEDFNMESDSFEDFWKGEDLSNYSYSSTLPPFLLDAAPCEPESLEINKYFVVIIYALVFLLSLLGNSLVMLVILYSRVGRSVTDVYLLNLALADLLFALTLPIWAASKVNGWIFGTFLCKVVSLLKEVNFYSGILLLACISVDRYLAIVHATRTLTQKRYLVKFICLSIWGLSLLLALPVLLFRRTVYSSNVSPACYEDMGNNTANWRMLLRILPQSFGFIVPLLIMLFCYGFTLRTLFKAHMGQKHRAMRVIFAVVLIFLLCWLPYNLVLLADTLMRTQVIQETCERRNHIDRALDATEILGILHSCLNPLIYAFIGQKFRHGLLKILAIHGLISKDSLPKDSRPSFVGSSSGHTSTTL
# B1: hDOP–GFP^2, P41143 1-372 (receptor)
# chain: T1 chain
# B2: hCXCR2–GFP^2, P25025 1-360 (receptor)
# chain: T2 chain
# Legend:
# [1] = biological target: T1, hDOP–Renilla luciferase (human), P41143; test: FRET or BRET; settings: remark: other sources report otherwise
# [2] = biological target: T2, hCXCR2–Renilla luciferase (human), …; test: FRET or BRET; settings: remark: other sources report otherwise
Binder,BRET50 ([acceptor] to [donor] ratio) [1],BRET50 ([acceptor] to [donor] ratio) [2]
B1,2.2,
B2,,1.6
